These are literature values, as cited in patent US20200069786A1, “COMPOSITION AND PROCESS FOR PREPARING VACCINE” (TREOS BIO ZRT., priority 2018, published 2020).

Where two headings read alike, the source gives them in different places.

The test system of this series is TSA.
The mark [1] stands for this setting: TSA expression rate in BLADDER cancer.
The mark [2] stands for this setting: TSA expression rate in Cervical cancer.

B1: SPAG9 (protein, UniProt O60271 1-1321, looked up)
C-Jun-amino-terminal …: MELEDGVVYQEEPGGSGAVMSERVSGLAGSIYREFERLIGRYDEEVVKELMPLVVAVLENLDSVFAQDQEHQVELELLRDDNEQLITQYEREKALRKHAEEKFIEFEDSQEQEKKDLQTRVESLESQTRQLELKAKNYADQISRLEEREAELKKEYNALHQRHTEMIHNYMEHLERTKLHQLSGSDQLESTAHSRIRKERPISLGIFPLPAGDGLLTPDAQKGGETPGSEQWKFQELSQPRSHTSLKVSNSPEPQKAVEQEDELSDVSQGGSKATTPASTANSDVATIPTDTPLKEENEGFVKVTDAPNKSEISKHIEVQVAQETRNVSTGSAENEEKSEVQAIIESTPELDMDKDLSGYKGSSTPTKGIENKAFDRNTESLFEELSSAGSGLIGDVDEGADLLGMGREVENLILENTQLLETKNALNIVKNDLIAKVDELTCEKDVLQGELEAVKQAKLKLEEKNRELEEELRKARAEAEDARQKAKDDDDSDIPTAQRKRFTRVEMARVLMERNQYKERLMELQEAVRWTEMIRASRENPAMQEKKRSSIWQFFSRLFSSSSNTTKKPEPPVNLKYNAPTSHVTPSVKKRSSTLSQLPGDKSKAFDFLSEETEASLASRREQKREQYRQVKAHVQKEDGRVQAFGWSLPQKYKQVTNGQGENKMKNLPVPVYLRPLDEKDTSMKLWCAVGVNLSGGKTRDGGSVVGASVFYKDVAGLDTEGSKQRSASQSSLDKLDQELKEQQKELKNQEELSSLVWICTSTHSATKVLIIDAVQPGNILDSFTVCNSHVLCIASVPGARETDYPAGEDLSESGQVDKASLCGSMTSNSSAETDSLLGGITVVGCSAEGVTGAATSPSTNGASPVMDKPPEMEAENSEVDENVPTAEEATEATEGNAGSAEDTVDISQTGVYTEHVFTDPLGVQIPEDLSPVYQSSNDSDAYKDQISVLPNEQDLVREEAQKMSSLLPTMWLGAQNGCLYVHSSVAQWRKCLHSIKLKDSILSIVHVKGIVLVALADGTLAIFHRGVDGQWDLSNYHLLDLGRPHHSIRCMTVVHDKVWCGYRNKIYVVQPKAMKIEKSFDAHPRKESQVRQLAWVGDGVWVSIRLDSTLRLYHAHTYQHLQDVDIEPYVSKMLGTGKLGFSFVRITALMVSCNRLWVGTGNGVIISIPLTETNKTSGVPGNRPGSVIRVYGDENSDKVTPGTFIPYCSMAHAQLCFHGHRDAVKFFVAVPGQVISPQSSSSGTDLTGDKAGPSAQEPGSQTPLKSMLVISGGEGYIDFRMGDEGGESELLGEDLPLEPSVTKAERSHLIVWQVMYGNE
Turning to B1, the “TSA Expression Rate (ER)” value (BRAIN) is recorded as 60%; the “TSA Expression Rate (ER)” value (BREAST) is reported as 88%; the “TSA Expression Rate (ER)” value (HCC) is recorded as 52%; the “TSA Expression Rate (ER)” value (LUNG) is listed as 56%; the “TSA Expression Rate (ER)” value (OVARIAN) is 90%; the “TSA Expression Rate (ER)” value (THYROID) is listed as 78%. The “Expression Rate (ER) %” value is on record as 81% under setting [1]; 71% (TSA expression rate in CRC); 82% under setting [2]; 88% (TSA expression rate in Kidney); 100% (TSA expression rate in LEUKEMIAS).

B2: MAGE-A1l (protein, UniProt P43364 1-429, looked up)
Melanoma-associated antigen 11: METQFRRGGLGCSPASIKRKKKREDSGDFGLQVSTMFSEDDFQSTERAPYGPQLQWSQDLPRVQVFREQANLEDRSPRRTQRITGGEQVLWGPITQIFPTVRPADLTRVIMPLEQRSQHCKPEEGLQAQEEDLGLVGAQALQAEEQEAAFFSSTLNVGTLEELPAAESPSPPQSPQEESFSPTAMDAIFGSLSDEGSGSQEKEGPSTSPDLIDPESFSQDILHDKIIDLVHLLLRKYRVKGLITKAEMLGSVIKNYEDYFPEIFREASVCMQLLFGIDVKEVDPTSHSYVLVTSLNLSYDGIQCNEQSMPKSGLLIIVLGVIFMEGNCIPEEVMWEVLSIMGVYAGREHFLFGEPKRLLTQNWVQEKYLVYRQVPGTDPACYEFLWGPRAHAETSKMKVLEYIANANGRDPTSYPSLYEDALREEGEGV
Take B2: for the setting “BRAIN”, the “TSA Expression Rate (ER)” value was 85%.

B3: ACTL8 (protein, UniProt Q9H568 1-366, looked up)
Actin-like protein 8: MAARTVIIDHGSGFLKAGTAGWNEPQMVFPNIVNYLPCKENPGPSYARRRVSLGIDICHPDTFSYPIERGRILNWEGVQYLWSFVLENHRREQEVPPVIITETPLREPADRKKMLEILFELLHVPSVLLADQLQMSLYASGLLTGVVVDSGYGLTRVQPFHQGRPLPASGKTLEFAGQDLSAYLLKSLFKEDCDRRCLFQLETVAVTQMNKCYVPQNLGEALDFRERQQSALDESNTYQLPDGSRVELTPMQRVAPEMFFSPQVFEQPGPSIPRAIVESVESCEISLRPLLVSHVMACGGNTLYPGFTKRLFRELMGDHVSSTKATVWEGSNRNFSVWLGASVVAHLSTYQSEWMSREEYGEHMRM
With B3, the “TSA Expression Rate (ER)” value (BRAIN) is 54%.

B4: PIWIL2 (protein, UniProt Q8TC59 1-973, looked up)
Piwi-like protein 2: MDPFRPSFRGQSPIHPSQCQAVRMPGCWPQASKPLDPALGRGAPAGRGHVFGKPEEPSTQRGPAQRESVGLVSMFRGLGIETVSKTPLKREMLPSGRGILGRGLSANLVRKDREELSPTFWDPKVLAAGDSKMAETSVGWSRTLGRGSSDASLLPLGRAAGGISREVDKPPCTFSTPSRGPPQLSSPPALPQSPLHSPDRPLVLTVEHKEKELIVKQGSKGTPQSLGLNLVKIQCHNEAVYQYHVTFSPNVECKSMRFGMLKDHQAVTGNVTAFDGSILYLPVKLQQVLELKSQRKTDSAEISIKIQMTKILEPCSDLCIPFYNVVFRRVMKLLDMKLVGRNFYDPTSAMVLQQHRLQIWPGYAASIRRTDGGLFLLADVSHKVIRNDCVLDVMHAIYQQNKEHFQDECTKLLVGNIVITRYNNRTYRIDDVDWNKTPKDSFTMSDGKEITFLEYYSKNYGITVKEEDQPLLIHRPSERQDNHGMLLKGEILLLPELSFMTGIPEKMKKDFRAMKDLAQQINLSPKQHHSALECLLQRIAKNEAATNELMRWGLRLQKDVHKIEGRVLPMERINLKNTSFITSQELNWVKEVTRDPSILTIPMHFWALFYPKRAMDQARELVNMLEKIAGPIGMRMSPPAWVELKDDRIETYVRTIQSTLGAEGKIQMVVCIIMGPRDDLYGAIKKLCCVQSPVPSQVVNVRTIGQPTRLRSVAQKILLQINCKLGGELWGVDIPLKQLMVIGMDVYHDPSRGMRSVVGFVASINLTLTKWYSRVVFQMPHQEIVDSLKLCLVGSLKKFYEVNHCLPEKIVVYRDGVSDGQLKTVANYEIPQLQKCFEAFENYQPKMVVFVVQKKISTNLYLAAPQNFVTPTPGTVVDHTITSCEWVDFYLLAHHVRQGCGIPTHYVCVLNTANLSPDHMQRLTFKLCHMYWNWPGTIRVPAPCKYAHKLAFLSGHILHHEPAIQLCENLFFL
For the molecule B4, the “TSA Expression Rate (ER)” value (BRAIN) is given as 64%; the “TSA Expression Rate (ER)” value (BREAST) was 94%; the “TSA Expression Rate (ER)” value (LUNG) is listed as 66%; the “TSA Expression Rate (ER)” value (OVARIAN) is reported as 61%; the “TSA Expression Rate (ER)” value (THYROID) was 88%. Moreover, the “Expression Rate (ER) %” value by setting is: under setting [1], 82%; (TSA expression rate in CRC) 80%; under setting [2], 100%; (TSA expression rate in Kidney) 49%; (TSA expression rate in PROSTATE cancer) 100%.

B5: XAGE-3 (protein, UniProt Q8WTP9 1-111, looked up)
X antigen family member 3: MIWRGRSTYRPRPRRSVPPPELIGPMLEPGDEEPQQEEPPTESRDPAPGQEREEDQGAAETQVPDLEADLQELSQSKTGGECGNGPDDQGKILPKSEQFKMPEGGDRQPQV
Turning to B5, for the setting “BRAIN”, the “TSA Expression Rate (ER)” value is listed as 60%. Also, the “Expression Rate (ER) %” value (TSA expression rate in HEAD and NECK) is given as 12%; the “Expression Rate (ER) %” value (TSA expression rate in MELANOMA) is 0%.

B6: PEPP2 (protein, UniProt Q9BQY4 1-288, looked up)
Rhox homeobox family member 2: MEPPDQCSQYMTSLLSPAVDDEKELQDMNAMVLSLTEEVKEEEEDAQPEPEQGTAAGEKLKSAGAQGGEEKDGGGEEKDGGGAGVPGHLWEGDLEGTSGSDGNVEDSDQSEKEPGQQYSRPQGAVGGLEPGNAQQPNVHAFTPLQLQELERIFQREQFPSEFLRRRLARSMNVTELAVQIWFENRRAKWRRHQRALMARNMLPFMAVGQPVMVTAAEAITAPLFISGMRDDYFWDHSHSSSLCFPMPPFPPPSLPLPLMLLPPMPPAGQAEFGPFPFVIVPSFTFPNV
B6: the “TSA Expression Rate (ER)” value (BREAST) is recorded as 60%.
